Measurements published in article PMC4477857 (The Journal of Cell Biology, 2015).

Target: T1, purified recombinant STIL (human, UniProt Q15468 1-1287)
T1 sequence (looked up): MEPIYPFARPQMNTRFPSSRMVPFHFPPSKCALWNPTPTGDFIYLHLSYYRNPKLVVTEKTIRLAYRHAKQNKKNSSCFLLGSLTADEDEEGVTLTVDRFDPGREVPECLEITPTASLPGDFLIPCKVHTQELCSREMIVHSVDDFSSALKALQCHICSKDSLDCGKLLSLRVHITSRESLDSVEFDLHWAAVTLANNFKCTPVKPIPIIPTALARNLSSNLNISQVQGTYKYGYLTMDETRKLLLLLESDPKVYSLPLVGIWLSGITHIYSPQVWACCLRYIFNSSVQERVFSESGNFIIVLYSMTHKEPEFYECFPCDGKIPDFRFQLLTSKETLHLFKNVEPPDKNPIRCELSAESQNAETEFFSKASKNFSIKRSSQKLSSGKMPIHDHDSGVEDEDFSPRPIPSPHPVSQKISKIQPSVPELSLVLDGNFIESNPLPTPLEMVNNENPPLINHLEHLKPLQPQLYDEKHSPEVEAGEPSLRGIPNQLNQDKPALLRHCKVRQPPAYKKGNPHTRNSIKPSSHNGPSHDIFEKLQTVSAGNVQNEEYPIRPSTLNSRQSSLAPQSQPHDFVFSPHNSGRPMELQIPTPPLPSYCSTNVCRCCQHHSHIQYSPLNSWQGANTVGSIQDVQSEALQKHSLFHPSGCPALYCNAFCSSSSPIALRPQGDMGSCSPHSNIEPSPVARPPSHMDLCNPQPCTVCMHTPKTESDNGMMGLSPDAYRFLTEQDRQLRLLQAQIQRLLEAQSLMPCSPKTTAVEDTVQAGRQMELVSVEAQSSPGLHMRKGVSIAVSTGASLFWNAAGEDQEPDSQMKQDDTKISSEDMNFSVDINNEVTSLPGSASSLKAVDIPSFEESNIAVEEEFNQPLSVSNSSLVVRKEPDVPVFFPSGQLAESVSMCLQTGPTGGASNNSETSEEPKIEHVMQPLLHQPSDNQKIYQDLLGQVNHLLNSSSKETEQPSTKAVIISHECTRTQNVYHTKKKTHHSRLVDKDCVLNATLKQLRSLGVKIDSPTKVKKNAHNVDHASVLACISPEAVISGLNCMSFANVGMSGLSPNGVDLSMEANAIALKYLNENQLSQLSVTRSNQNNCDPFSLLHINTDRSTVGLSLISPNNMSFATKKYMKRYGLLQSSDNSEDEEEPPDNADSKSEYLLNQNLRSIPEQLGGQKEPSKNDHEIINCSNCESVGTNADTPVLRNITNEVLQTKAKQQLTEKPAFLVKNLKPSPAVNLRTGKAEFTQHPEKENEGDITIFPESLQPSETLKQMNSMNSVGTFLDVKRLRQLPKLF
Experiment: pull-down

binding result: binds
B1: GST-hPlk4 (enzyme, human, UniProt O00444 1-970, looked up)
chain: MATCIGEKIEDFKVGNLLGKGSFAGVYRAESIHTGLEVAIKMIDKKAMYKAGMVQRVQNEVKIHCQLKHPSILELYNYFEDSNYVYLVLEMCHNGEMNRYLKNRVKPFSENEARHFMHQIITGMLYLHSHGILHRDLTLSNLLLTRNMNIKIADFGLATQLKMPHEKHYTLCGTPNYISPEIATRSAHGLESDVWSLGCMFYTLLIGRPPFDTDTVKNTLNKVVLADYEMPSFLSIEAKDLIHQLLRRNPADRLSLSSVLDHPFMSRNSSTKSKDLGTVEDSIDSGHATISTAITASSSTSISGSLFDKRRLLIGQPLPNKMTVFPKNKSSTDFSSSGDGNSFYTQWGNQETSNSGRGRVIQDAEERPHSRYLRRAYSSDRSGTSNSQSQAKTYTMERCHSAEMLSVSKRSGGGENEERYSPTDNNANIFNFFKEKTSSSSGSFERPDNNQALSNHLCPGKTPFPFADPTPQTETVQQWFGNLQINAHLRKTTEYDSISPNRDFQGHPDLQKDTSKNAWTDTKVKKNSDASDNAHSVKQQNTMKYMTALHSKPEIIQQECVFGSDPLSEQSKTRGMEPPWGYQNRTLRSITSPLVAHRLKPIRQKTKKAVVSILDSEEVCVELVKEYASQEYVKEVLQISSDGNTITIYYPNGGRGFPLADRPPSPTDNISRYSFDNLPEKYWRKYQYASRFVQLVRSKSPKITYFTRYAKCILMENSPGADFEVWFYDGVKIHKTEDFIQVIEKTGKSYTLKSESEVNSLKEEIKMYMDHANEGHRICLALESIISEEERKTRSAPFFPIIIGRKPGSTSSPKALSPPPSVDSNYPTRERASFNRMVMHSAASPTQAPILNPSMVTNEGLGLTTTASGTDISSNSLKDCLPKSAQLLKSVFVKNVGWATQLTSGAVWVQFNDGSQLVVQAGVSSISYTSPNGQTTRYGENEKLPDYIKQKLQCLSSILLMFSNPTPNFH
